Assay results taken from patent US20150197564A1 (Regeneron, published 2015).

T1: hANGPTL3(17-169)-mFc (human)
T1 construct: also called N-terminal coiled-coil domain of hANGPTL3 with a C-terminal mouse Fc fusion
T1 chain: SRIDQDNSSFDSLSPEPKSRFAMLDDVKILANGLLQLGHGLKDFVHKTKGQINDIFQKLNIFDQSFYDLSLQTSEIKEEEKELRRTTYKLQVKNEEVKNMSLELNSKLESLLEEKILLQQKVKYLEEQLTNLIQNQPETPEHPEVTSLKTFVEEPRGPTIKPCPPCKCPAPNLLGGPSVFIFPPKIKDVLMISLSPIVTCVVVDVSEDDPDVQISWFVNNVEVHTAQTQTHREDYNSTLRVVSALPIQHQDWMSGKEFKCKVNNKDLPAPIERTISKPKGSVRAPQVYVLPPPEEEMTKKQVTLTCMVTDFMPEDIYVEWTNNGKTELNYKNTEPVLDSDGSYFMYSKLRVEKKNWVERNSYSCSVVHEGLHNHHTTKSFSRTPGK

T2: bovine LPL (bovine, UniProt P11151 29-478, limits assumed)
T2 sequence (looked up): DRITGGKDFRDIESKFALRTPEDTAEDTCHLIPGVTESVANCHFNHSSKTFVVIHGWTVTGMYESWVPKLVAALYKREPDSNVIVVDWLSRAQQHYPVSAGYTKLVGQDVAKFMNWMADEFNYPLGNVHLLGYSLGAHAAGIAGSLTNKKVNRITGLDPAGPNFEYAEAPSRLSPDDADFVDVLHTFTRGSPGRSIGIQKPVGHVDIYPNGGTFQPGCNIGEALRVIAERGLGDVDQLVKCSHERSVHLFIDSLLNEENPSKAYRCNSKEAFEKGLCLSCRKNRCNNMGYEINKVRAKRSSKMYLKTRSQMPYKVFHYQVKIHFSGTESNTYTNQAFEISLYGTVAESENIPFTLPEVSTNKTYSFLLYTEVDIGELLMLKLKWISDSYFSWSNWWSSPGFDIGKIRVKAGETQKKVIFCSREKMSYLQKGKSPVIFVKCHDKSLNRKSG

B1: H4H1295P (antibody, V domains shown)
VH: QVQLVQSGPEVKKPGASVRVSCKASGYLSDFIITWVRQAPGQGLEWMGWISTYSGDTDSAPKFQGRVTMTTDTSTTTVFLELRSLRSDDTAVYYCARGRLFDYWGQGTLVTVSS
VL: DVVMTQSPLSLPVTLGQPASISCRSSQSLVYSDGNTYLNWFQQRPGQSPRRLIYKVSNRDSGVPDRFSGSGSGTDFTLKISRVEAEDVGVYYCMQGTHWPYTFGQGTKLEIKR
B2: H4H1263S (antibody, IgG4, V domains shown)
VH: QVQLVQSGGGVVQPGRSLRLSCAASGFTFSTYGMHWVRQAPGKGLEWMAVISFDRGNKYYADSVKGRFTISRDNSKNTLYLQMNSLRAEDTAVYYCAKGGGSGTFYYYYGMDVWGQGTTVTVSS
VL: DIQMTQSPSSVSASVGNRVTITCRASQGISSWLAWYHQKPGKVPKVLIYAASSLQSGVPSRFSGSGSGTDFTLTISSLQPEDFATYYCQQANSFPFTFGPGTKVEIKR
B3: H4H1296P (antibody, IgG4, V domains shown)
VH: QVQLVESGGVSVKPGGSLRLSCAASGFTFSDYYMSWIRQAPGKGLEWVSYIGSSGTNDYYADSVKGRFTISRDNAKNSLYLQMDSLRAEDTAVYYCARDSSQMGFDYWGQGTLVTVSS
VL: DIQMTQSPSSLSASVGDRVTITCRASQNIINFLNWYQQRPGKAPQLLIYVAASLQSGVPSRFTGSGYGTDFTLTISSLQPEDFATYYCQQTYTNPLTFGGGTKVEIKR
B4: H4H1268S (antibody, IgG4, V domains shown)
VH: QVQLQQSGPGLVKPSQTLSLTCAISGDSVSSNSPAWNWIRQSPSRGLEWLGRTYYRSKWYNDYAVSVRGRITINPDTSNNQFSLHLNSVTPEDTAMYYCARDKGLTARPTYFDYWGQGTLVTVSS
VL: DIQMTQSPSTLSASVGDRVTITCRASQSINYWLAWYQQKPGKAPKPLIYKASSLESGVPSRFSGSGSGTEFTLTISSLQPDDFTTYYCQQYNSYSPTFGQGTKLEIKR
B5: H4H1282P (antibody, IgG4, V domains shown)
VH: EVQLVQSGGGVVQPGRSLRLSCAASGFTFSNYGMHWVRQAPGKGLEWVAVVWYDGDNKYYADSVKGRFTISRDNSKNTLYLQMNSLRAEDTAVYYCARDIITSRPTLDYWGQGTLVTVSS
VL: DIQLTQSPSFLSASVGDRVTITCWASQGINSYLAWYQQKPGKAPKLLIYPASTLQSGVPSRFSGSGSGTEFTLTISSLQPVDFATYYCQQLNSYPLTFGGGTKVEIKR
B6: hANGPTL3(17-170)-His (other)
chain: SRIDQDNSSFDSLSPEPKSRFAMLDDVKILANGLLQLGHGLKDFVHKTKGQINDIFQKLNIFDQSFYDLSLQTSEIKEEEKELRRTTYKLQVKNEEVKNMSLELNSKLESLLEEKILLQQKVKYLEEQLTNLIQNQPETPEHPEVTSLKTFVEKHHHHHH
B7: hANGPTL3(17-460)-His (other)
chain: SRIDQDNSSFDSLSPEPKSRFAMLDDVKILANGLLQLGHGLKDFVHKTKGQINDIFQKLNIFDQSFYDLSLQTSEIKEEEKELRRTTYKLQVKNEEVKNMSLELNSKLESLLEEKILLQQKVKYLEEQLTNLIQNQPETPEHPEVTSLKTFVEKQDNSIKDLLQTVEDQYKQLNQQHSQIKEIENQLRRTSIQEPTEISLSSKPRAPRTTPFLQLNEIRNVKHDGIPAECTTIYNRGEHTSGMYAIRPSNSQVFHVYCDVISGSPWTLIQHRIDGSQNFNETWENYKYGFGRLDGEFWLGLEKIYSIVKQSNYVLRIELEDWKDNKHYIEYSFYLGNHETNYTLHLVAITGNVPNAIPENKDLVFSTWDHKAKGHFNCPEGYSGGWWWHDECGENNLNGKYNKPRAKSKPERRRGLSWKSQNGRLYSIKSTKMLIHPTDSESFEHHHHHHHHHH
B8: H4H1248P (antibody, IgG4, V domains shown)
VH: QVQLVESGGGVVQPGRSLRLSCAASGFTFSSYGMHWVRQAPGKGLEWVAVISYDGSNKYYADSVKGRFTISRDNSKNTLYLQMNSLRAEDTAVYYCAKVGATTFYYYYGMDVWGQGTTVTVSS
VL: DIQMTQSPSSVSAFVGDRVTITCRASQGISSWLAWYQQKPGKAPKLLIYAASSLQSGVPSRFSGSGSGTDFTLTISSLQPEDFATYYCQKANSFPFTFGPGTKVEIK
B9: mANGPTL3(17-455)-His (other)
chain: SRVDPDLSSFDSAPSEPKSRFAMLDDVKILANGLLQLGHGLKDFVHKTKGQINDIFQKLNIFDQSFYDLSLRTNEIKEEEKELRRTTSTLQVKNEEVKNMSVELNSKLESLLEEKTALQHKVRALEEQLTNLILSPAGAQEHPEVTSLKSFVEQQDNSIRELLQSVEEQYKQLSQQHMQIKEIEKQLRKTGIQEPSENSLSSKSRAPRTTPPLQLNETENTEQDDLPADCSAVYNRGEHTSGVYTIKPRNSQGFNVYCDTQSGSPWTLIQHRKDGSQDFNETWENYEKGFGRLDGEFWLGLEKIYAIVQQSNYILRLELQDWKDSKHYVEYSFHLGSHETNYTLHVAEIAGNIPGALPEHTDLMFSTWNHRAKGQLYCPESYSGGWWWNDICGENNLNGKYNKPRTKSRPERRRGIYWRPQSRKLYAIKSSKMMLQPTTHHHHHHHHHH
B10: MfANGPTL3(17-170)-mmH (other)
chain: SRIDQDNSSFDSVSPEPKSRFAMLDDVKILANGLLQLGHGLKDFVHKTKGQINDIFQKLNIFDQSFYDLSLQTSEIKEEEKELRRTTYKLQVKNEEVKNMSLELNSKLESLLEEKILLQQKVKYLEEQLTNLIQNQPATPEHPEVTSLKSFVEKEQKLISEEDLGGEQKLISEEDLHHHHHH

How the values were obtained:
hANGPTL3(17-169)-mFc = target: T1, hANGPTL3(17-169)-mFc; assay: SPR Biacore, antigen captured, 25C, pH 7.4, HBS-EP
Protocol: (§1) All kinetic binding experiments were performed at 25° C. or 37° C. on a BIACORE™ T200 label-free molecular interaction instrument (GE Healthcare) using a CM5 sensor chip. Briefly, an antigen capture surface was generated by covalently coupling either an anti-mouse IgG-specific antibody (anti-mFc; GE Healthcare; catalog #BR-1008-38) or an anti-pentahistidine-specific antibody (Qiagen; catalog #34660) to the surface of a CM5 sensor chip using a standard amine coupling method.

hANGPTL3(17-460)-His [1] = target: B7; assay: SPR Biacore, antigen captured, 25C, pH 7.4, HBS-EP
Protocol: as §1

mANGPTL3(17-455)-His = target: B9; assay: SPR Biacore, antigen captured, 37C, pH 7.4, HBS-EP
Protocol: as §1

hANGPTL3(17-460)-His [2] = target: B7; assay: SPR Biacore, antigen captured, 37C, pH 7.4, HBS-EP
Protocol: as §1

bovine LPL = target: T2, bovine LPL; assay: cell-based or functional assay

Kd (hANGPTL3(17-169)-mFc) [nM]	koff (hANGPTL3(17-169)-mFc) [s⁻¹]	kon (hANGPTL3(17-169)-mFc) [M⁻¹ s⁻¹]	t1/2 (hANGPTL3(17-169)-mFc) [min]	Kd (hANGPTL3(17-460)-His [1]) [nM]	koff (hANGPTL3(17-460)-His [1]) [s⁻¹]	kon (hANGPTL3(17-460)-His [1]) [M⁻¹ s⁻¹]	t1/2 (hANGPTL3(17-460)-His [1]) [min]	binding result (mANGPTL3(17-455)-His)	Kd (hANGPTL3(17-460)-His [2]) [nM]	koff (hANGPTL3(17-460)-His [2]) [s⁻¹]	kon (hANGPTL3(17-460)-His [2]) [M⁻¹ s⁻¹]	t1/2 (hANGPTL3(17-460)-His [2]) [min]	EC50 (nM), inhibition of LPL activity (bovine LPL) [nM]	Binder
0.226	7.95e-05	352000	145	0.197	7.35e-05	373000	157	–	–	–	–	–	–	B1
6.23	0.00422	677000	3	2.47	0.00126	508000	9	no binding	0.381	0.00181	4.74e+06	6	–	B2
0.0611	3.92e-05	641000	295	0.137	4.12e-05	301000	280	–	–	–	–	–	–	B3
0.721	0.000835	1.16e+06	14	1.47	0.00189	1.29e+06	6	–	–	–	–	–	–	B4
0.0463	5.92e-05	1.28e+06	195	0.0968	9.26e-05	957000	125	–	–	–	–	–	–	B5
–	–	–	–	–	–	–	–	–	–	–	–	–	91	B6
–	–	–	–	–	–	–	–	–	–	–	–	–	50	B7
5.95	0.00272	457000	4	5.62	0.00247	440000	5	no binding	0.986	0.00193	1.96e+06	6	–	B8
–	–	–	–	–	–	–	–	–	–	–	–	–	33	B9
–	–	–	–	–	–	–	–	–	–	–	–	–	625	B10
